Changes are numbered by the printed parent chain. Names may count otherwise. Converted amounts (≈) assume the structure as drawn.
Tests used:
S. Aureus ATCC 29213 = test: Minimum Inhibition Concentrations (MICs) Test; assay type: cell-based, Staphylococcus Aureus
E. faecalis ATCC 700221 = test: Minimum Inhibition Concentrations (MICs) Test; assay type: cell-based, Enterococcus Faecalis
E. faecalis ATCC 29302 = test: Minimum Inhibition Concentrations (MICs) Test; assay type: cell-based, Enterococcus Faecalis
E. faecalis ATCC 51559 = test: Minimum Inhibition Concentrations (MICs) Test; assay type: cell-based, Enterococcus Faecalis
E. faecalis (ATCC 51559) = test: In vivo animal study, sepsis in mice; design: species or system ICR female mice; details: 10 mg/kg/dose i.v. twice a day, day 1 to day 3
Experimental: 12 ICR female mice with an average body weight of 27 g to 30 g were used in this experiment. Mice had free access to water and food at all time. Sepsis was induced in mice by intravenous (i.v.) injection of […] cfu/mouse of E. faecalis (ATCC 51559) on day 0. The mice were randomized into the following four treatment groups at the start of the experiment:
Each mouse received 10 mg/kg/dose of the medication by intravenous route, twice a day from day 1 to day 3, for a total of 6 doses. Mice were anesthetized and blood was taken from the orbital sinus on day 1, day 2, and day 3. The blood sample was diluted with PBS, plated on Brain Heart infusion agar (BHI agar; Difico, Detroit, Mich., USA) and cultured for colony formation unit.
Data were expressed as mean±SD and the statistical analysis was performed using SigmaStat®. Differences were considered to be significant if the P value was <0.05.

E. faecalis ATCC 51299 = test: Minimum Inhibition Concentrations (MICs) Test; assay type: cell-based, Enterococcus Faecalis
E. faecalis ATCC 33186 = test: Minimum Inhibition Concentrations (MICs) Test; assay type: cell-based, Enterococcus Faecalis
S. Aureus ATCC 700699 = test: Minimum Inhibition Concentrations (MICs) Test; assay type: cell-based, Staphylococcus Aureus
Dbv29 = test: Relative enzymatic activities of Dbv29 mutants; assay type: biochemical, Nonomuraea sp. ATCC39727; details: relative to WT

Question: How did the MIC (S. Aureus ATCC 29213; Staphylococcus aureus, ATCC29213) turn out when `CN[C@H](CC(C)C)C(=O)N[C@H]1C(=O)N[C@@H](CC(N)=O)C(=O)N[C@H]2C(=O)N[C@H]3C(=O)N[C@H](C(=O)N[C@H](C(=O)O)c4cc(O)cc(O)c4-c4cc3ccc4O)[C@H](O)c3ccc(c(Cl)c3)Oc3cc2cc(c3O[C@@H]2O[C@H](CO)[C@@H](O)[C@H](O)[C@H]2O[C@H]2C[C@](C)(N)[C@H](O)[C@H](C)O2)Oc2ccc(cc2Cl)[C@H]1O` [Compound 1, vancomycin] was run?
Answer: Its MIC is 1 µg/mL (≈ 0.69 µM).

Question: And the MIC (E. faecalis ATCC 700221; Enterococcus faecalis, ATCC700221)?
Answer: The MIC was over 64 µg/mL.

Question: What about the MIC (E. faecalis ATCC 29302; Enterococcus faecalis, ATCC29302) of the same molecule?
Answer: Its MIC is 1 µg/mL (≈ 0.69 µM).

Question: What about the MIC (E. faecalis ATCC 51559; Enterococcus faecalis, ATCC 51559 / VRE) of the same molecule?
Answer: Its MIC is over 32 µg/mL.

Question: And the “whole blood bacterial counts over the 3-day period” value (E. faecalis (ATCC 51559))?
Answer: The value was “suppressed”.

Question: What about the MIC (E. faecalis ATCC 51299; Enterococcus faecalis, ATCC 51299 / VRE) of the same molecule?
Answer: Its MIC is over 64 µg/mL.

Question: What about the MIC (E. faecalis ATCC 33186; Enterococcus faecalis, ATCC33186) of the same molecule?
Answer: The MIC was 4 µg/mL (≈ 2.76 µM).

Question: And the MIC (S. Aureus ATCC 700699; Staphylococcus aureus, ATCC700699)?
Answer: Its MIC is 16 µg/mL (≈ 11 µM).

Question: Which results are given for Teicoplanin [Compound 4]?
Answer: MIC (S. Aureus ATCC 29213; S. Aureus ATCC 29213, methacillin-sensitive strain): 0.5 µg/mL; MIC (E. faecalis ATCC 700221; E. faecalis ATCC 700221, resistant to vancomycin): >32 µg/mL; MIC (E. faecalis ATCC 29302; E. faecalis ATCC 29302, standard strain, no growth in duplicate): 0.125 µg/mL; MIC (E. faecalis ATCC 51559; E. faecalis ATCC 51559, multidrug-resistant strain (VRE)): >32 µg/mL; whole blood bacterial counts over the 3-day period (E. faecalis (ATCC 51559)): suppressed; MIC (E. faecalis ATCC 51299; E. faecalis ATCC 51299, low level VRE): 0.5 µg/mL; MIC (E. faecalis ATCC 33186; E. faecalis ATCC 33186, antibiotics sensitive strain): 0.25 µg/mL; MIC (S. Aureus ATCC 700699; S. Aureus ATCC 700699, resistant to methacillin, reduced vancomycin susceptibility): 8 µg/mL

B1: I401W (protein)
chain: MTGGTGADAASAGASSTRPELRGERCLPPAGPVKVTPDDPRYLNLKLRGANSRFNGEPDYIHLVGSTQQVADAVEETVRTGKRVAVRSGGHCFEDFVDNPDVKVIIDMSLLTEIAYDPSMNAFLIEPGNTLSEVYEKLYLGWNVTIPGGVCGGVGVGGHICGGGYGPLSRQFGSVVDYLYAVEVVVVNKQGKARVIVATRERDDPHHDLWWAHTGGGGGNFGVVTKYWMRVPEDVGRNPERLLPKPPATLLTSTVTFDWAGMTEAAFSRLLRNHGEWYERNSGPDSPYTGLWSQLMIGNEVPGMGESGFMMPIQVDATRPDARRLLDAHIEAVIDGVPPAEVPEPIEQRWLASTPGRGGRGPASKTKAGYLRKRLTDRQIQAVYENMTHMDGIDYGAVWLWGYGGKVNTVDPAATALPQRDAILKVNYITGWANPGNEAKHLTWVRKLYADVYAETGGVPVPNDVSDGAYINYPDSDLADPGLNTSGVPWHDLYYKGNHPRLRKVKAAYDPRNHFHHALSIRP
Question: With B1 as the molecule, how does the Relative activity (Dbv29) read?
Answer: The Relative activity was 0.02.

B2: R41A/N44A (protein)
chain: B1 chain with R41A, N44A, W401I
Question: B2 was tested. Which Relative activity (Dbv29) did it give?
Answer: The Relative activity was 0.59.

B3: Y370F/Y403F (protein)
chain: B1 chain with Y370F, W401I, Y403F
Question: Which Relative activity (Dbv29) does the source give for B3 here?
Answer: Its Relative activity is 0.05.

B4: Y165F (protein)
chain: B1 chain with Y165F, W401I
Question: For B4, which Relative activity (Dbv29) is on record?
Answer: The Relative activity was 0.70.

B5: Y428F (protein)
chain: B1 chain with W401I, Y428F
Question: How did the Relative activity (Dbv29) turn out when B5 was run?
Answer: The Relative activity was 1.00.

B6: R41A (protein)
chain: B1 chain with R41A, W401I
Question: For B6, which Relative activity (Dbv29) is on record?
Answer: Its Relative activity is 0.72.

B7: Y165W (protein)
chain: B1 chain with Y165W, W401I
Question: How did the Relative activity (Dbv29) turn out when B7 was run?
Answer: The Relative activity was 0.03.

B8: R360E/T366E (protein)
chain: B1 chain with R360E, T366E, W401I
Question: With B8 as the molecule, how does the Relative activity (Dbv29) read?
Answer: Its Relative activity is 0.03.

B9: Y470F (protein)
chain: B1 chain with W401I, Y470F
Question: For B9, which Relative activity (Dbv29) is on record?
Answer: The Relative activity was 0.21.

B10: N44A (protein)
chain: B1 chain with N44A, W401I
Question: Which Relative activity (Dbv29) does the source give for B10 here?
Answer: Its Relative activity is 0.87.

B11: C26A (protein)
chain: B1 chain with C26A, W401I
Question: With B11 as the molecule, how does the Relative activity (Dbv29) read?
Answer: The Relative activity was 1.11.

B12: R360E (protein)
chain: B1 chain with R360E, W401I
Question: With B12 as the molecule, how does the Relative activity (Dbv29) read?
Answer: The Relative activity was 0.76.

B13: R360L/T366A (protein)
chain: B1 chain with R360L, T366A, W401I
Question: B13 was tested. Which Relative activity (Dbv29) did it give?
Answer: Its Relative activity is 0.03.

B14: Y403F (protein)
chain: B1 chain with W401I, Y403F
Question: For B14, which Relative activity (Dbv29) is on record?
Answer: Its Relative activity is 0.65.

B15: Y428F/Y453F (protein)
chain: B1 chain with W401I, Y428F, Y453F
Question: With B15 as the molecule, how does the Relative activity (Dbv29) read?
Answer: The Relative activity was 1.08.

B16: R360L (protein)
chain: B1 chain with R360L, W401I
Question: How did the Relative activity (Dbv29) turn out when B16 was run?
Answer: Its Relative activity is 0.23.

B17: T366L (protein)
chain: B1 chain with T366L, W401I
Question: B17 was tested. Which Relative activity (Dbv29) did it give?
Answer: Its Relative activity is 0.13.

B18: Y453F (protein)
chain: B1 chain with W401I, Y453F
Question: With B18 as the molecule, how does the Relative activity (Dbv29) read?
Answer: The Relative activity was 0.82.

B19: Y370F (protein)
chain: B1 chain with Y370F, W401I
Question: For B19, which Relative activity (Dbv29) is on record?
Answer: The Relative activity was 0.10.

B20: S364K (protein)
chain: B1 chain with S364K, W401I
Question: With B20 as the molecule, how does the Relative activity (Dbv29) read?
Answer: The Relative activity was 0.04.

B21: S364R (protein)
chain: B1 chain with S364R, W401I
Question: B21 was tested. Which Relative activity (Dbv29) did it give?
Answer: Its Relative activity is 0.08.

B22: R360L/T366E (protein)
chain: B1 chain with R360L, T366E, W401I
Question: How did the Relative activity (Dbv29) turn out when B22 was run?
Answer: Its Relative activity is 0.01.

B23: C92A (protein)
chain: B1 chain with C92A, W401I
Question: With B23 as the molecule, how does the Relative activity (Dbv29) read?
Answer: The Relative activity was 0.95.

B24: Y473F (protein)
chain: B1 chain with W401I, Y473F
Question: For B24, which Relative activity (Dbv29) is on record?
Answer: The Relative activity was 0.23.
